Laboratory results taken from PMC9295770 (Proceedings of the National Academy of Sciences of the …, 2022).

How the values were obtained:
[1] = biological target: CD3ζL19A-GFP (L19A murine CD3ζ-GFP fusion protein), transgenic mouse thymocytes (mouse); experiment: immunoblot of whole lysates
[2] = biological target: the molecule itself; experiment: immunoblot of whole lysates

| stoichiometry N [1] | Molecule | stoichiometry N [2] |
| --- | --- | --- |
| 2 | CD3ζL19A-GFP (L19A murine CD3ζ-GFP fusion protein), transgenic mouse thymocytes (natural protein) | – |
| – | CD3ζWT-GFP (wild-type murine CD3ζ-GFP fusion protein), transgenic mouse thymocytes (natural protein, UniProt P24161-1 22-164, looked up) QSFGLLDPKLCYLLDGILFIYGVIITALYLRAKFSRSAETAANLQDPNQLYNELNLGRREEYDVLEKKRARDPEMGGKQQRRRNPQEGVYNALQKDKMAEAYSEIGTKGERRRGKGHDGLYQGLSTATKDTYDALHMQTLAPR | 2 |
